Results as given in the nanobody polyreactivity screen of Harvey et al. (2022).

Assay: yeast display, Sf9 membrane polyspecificity reagent, FACS + sequencing; frameworks hold sequencing errors
Procedure, shortened: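 Galactose-induced (36–48 hours) yeast carrying a synthetic nanobody display library were exposed to 10% biotinylated, detergent-solubilized Sf9 membrane reagent at 4 °C for 1 hour. FACS followed streptavidin microbead enrichment, using low and high (top ~1%) gates for expression (anti-HA) and reagent binding (streptavidin). Colony PCR, MiSeq 2 × 250 sequencing and CDR-length filtering followed. Labels for polyreactivity reflect the gate of origin.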

Sequence	polyreactivity (PSR sort gate)
QVQLVESGGGLVQAGGSLRLSCAASGRILNINAMGWYRQAPGQERELVAAITWRGGRTFYADSVKGRFTISRDNAKNTVYLQMNSLKPEDTAVYYCAASSNTWYPTGYYWGQGTQVTVSS	high polyreactivity
QVQLVESGGGLVQAGGSLRLSCAASGRILPGYALGWYRQAPGKERELVAAIRGNGDSTYYADSVKGRFTISRDNAKNTVYLQMNSLKPEDTAVYYCAARRVSTIPRDSYRGRKYGYWGQGTQVTVSS	low polyreactivity
QVQLVESGGGLVQAGGSLRLSCAASGRILPSNAMGWYRQAPGKEREFVAGISGSGGSTYYADSVKGRFTISRDNAKNTVYLQMNSLKPEDTAVYYCAAGRAYDGTKHDYWGQGTQVTVSS	high polyreactivity
QVQLVESGGGLVQAGGSLRLSCAASGRILPWYAMGWYRQAPGKERELVARIRSTDSTNYADSVKGRFTISRDNAKNTVYLQMNSLKPEDTAVYYCAKVQWGFPYAWLGSDYWGQGTQVTVSS	low polyreactivity
QVQLVESGGGLVQAGGSLRLSCAASGRILPYNVMGWYRQAPGKEREFVAAITGSGGDTYYADSVKGRFTISRDNAKNTVYLQMNSLKPEDTAVYYCAAAPYIGGSFGQTPGSGYWGQGTQVTVSS	low polyreactivity
QVQLVESGGGLVQAGGSLRLSCAASGRILPYNVMGWYRQATGKEREFVAAITGSGGDTYYADSVKGRFTISRDNAKNTVYLQMHILKPVDTAVYYCAAAPYIGGSFGQTPGSGYWGQGTQVTVSS	low polyreactivity
QVQLVESGGGLVQAGGSLRLSCAASGRILQYNDMGWYRPAPGKERELVAAIDWSGGITYYADSVKGRFTISRDNAKNTVYLQMNSLKPEDTAVYYCNADFEYSYLYRMEYWGQGTQVTVSS	low polyreactivity
QVQLVESGGGLVQAGGSLRLSCAASGRILRFYAMGWYRQAPGKERELVATISRSGGSTYYADSVKGRFTISRDNAKNTVYLQMNSLKPEDTAVYYSNAKFKGVSYKMDYWGQGTQVTVSS	high polyreactivity
QVQLVESGGGLVQAGGSLRLSCAASGRILRSNAMGWYRQAPGKERELVAAITSSGGSTRYADSVKGRFTISRDNAKNTVYLQMNSLKPEDTAVYYCAARYRQGFQAGHGYWGQGTQVTVSS	high polyreactivity
QVQLVESGGGLVQAGGSLRLSCAASGRILRYNAMGWYRQAPGKERELVAAITRTGGITRYADSVKGRFTISRDNAKNTVSLQMNSLNPQDTAVYYCNTYPRYGYVLSWPQGYDYWGQGTQVTVSS	low polyreactivity
QVQLVESGGGLVQAGGSLRLSCAASGRILRYNAMGWYRQAPGKERELVASISGNGGSTYYADSVKGRFTISRDNAKNTVYVQMNSLKPEDTAVYYCNKYYYSSRGQKEYDYWGQGTQVTVSS	low polyreactivity
QVQLVESGGGLVQAGGSLRLSCAASGRILRYYAMGWYRQAPGKELELVASISRGGSTYYADSVKGRFTISRDNAKNTVYLQMNSLKPEDTAVYYCATEVRRSTREFGYWGQGTQVTVSS	high polyreactivity
QVQLVESGGGLVQAGGSLRLSCAASGRILRYYTMGWYRQAPGKERELVAAITWSGGSTNYADSVKGRFTISRDYAKNTVYLQMNSLKPEDSEVYYCNADRRKYYFTYGSWGQGTQVTVSS	high polyreactivity
QVQLVESGGGLVQAGGSLRLSCAASGRILSANAMGWYRQAPGTERELVAAITYSGDNTYYADSVKGRFTISRDNAKNTVYLQMNSLKPEDTAVYYCAREFQVDGGEEDYWGQGSQVTVSS	low polyreactivity
QVQLVESGGGLVQAGGSLRLSCAASGRILSLYAMGWNRQAPGKERELVASINWSDGSTYYADSVKGRFTISRDNAKNTVYLQMNSLKPEDTAVYYCTVDVRSYVAGYDYWGQGTQVTVSS	low polyreactivity
QVQLVESGGGLVQAGGSLRLSCAASGRILSTYAMGWYRQAPGKERELVAVISWTGGRTYYADSVKGRFTISRYNAKNTVYLQMNSLKPEDTAVYYCNARPYYGGTRGRQYEYGYWGQGSQVTVSS	high polyreactivity
QVQLVESGGGLVQAGGSLRLSCAASGRILSYYAMGWYRQAPGKERELVARITGRGGSTYYADSVKGRFTISRDNAKNTVYLQMNSLKPEDTAVYYCAAVPWVVYSGYDYWGQGTQVTVSS	low polyreactivity
QVQLVESGGGLVQAGGSLRLSCAASGRILTSNAMGWYRQAPGKERELVAAISWSGGSTYYADSVKGRFTISRDNAKNTVYLQMNSLKPEDTAVYYCAARSIGRAGGYHYWGQGTQVTVSS	low polyreactivity
QVQLVESGGGLVQAGGSLRLSCAASGRILTTNAMGLYRQETGKERELVAAITRSGGRTYYADSVKGRFTISRDNAKNTVYLQMNSLKPEDTAVYYCNAVTTRLALYDYWGQGTQVTVSS	high polyreactivity
QVQLVESGGGLVQAGGSLRLSCAASGRILVSYAMGWYRQAPGKERELVAAISRSGGSTYYADSVKGRFTISRDNAKNTVYLQMNSLKPEDTAVYYCNVYRFSRYDYWGQGTQVTVSS	high polyreactivity
QVQLVESGGGLVQAGGSLRLSCAASGRILVTYAMGWYRQAPGKERELVAAITRGTNTNYADSVKGRFTISRDNAKNTVYLQMNSLKPEDTAVYYCAARRYRYRYGYGGDYWGQGTQVTVSS	high polyreactivity
QVQLVESGGGLVQAGGSLRLSCAASGRILWGNVMGWYRKAPGKERELVATITHGGSTNYADSVKGRFTISRDNAKNTVYLQMNSLKPEDTAVYYCARATRIQFYRRPYNYWGQGTQVTVSS	high polyreactivity

Sequence	polyreactivity (PSR sort gate)
QVQLVESGGGLVQAGGSLRLSCAASGRILYGNAMGWYRKAPGKERELVAAITRRGGSTYYADSVKGRFTISRDNAKNTVYLQMNSLKPEDTAVYYCNKVVGYRDTDFDYWGQGTQVTVSS	high polyreactivity
QVQLVESGGGLVQAGGSLRLSCAASGRILYRYAMGWSRQAAGTEREVVAAISRSGGDTYYADSVKGRFTISRDNAKNTVYLQMNSLKPEDTAVYYCAGYSSWSGGLGGVYYWGQGTQVTVSS	low polyreactivity
QVQLVESGGGLVQAGGSLRLSCAASGRILYVNAMGWYRQAPGKERELVAAISWRGGRTYYADSVKGRFTISRDHAKNTVYLQMNSLKPEDTAVYYCAARARGGYQRDYWGQGTQVTVSS	high polyreactivity
QVQLVESGGGLVQAGGSLRLSCAASGRILYYYAMGWYRQAPGKERELVAAINSSGGSTYYADSVKGRFTISRDNAKNTVYLQMNSLKPEDTAVYYCAAVRSKLYYYWGQGTQVTVSS	high polyreactivity
QVQLVESGGGLVQAGGSLRLSCAASGRIPAYAMGWYRQAPWKERELVAAITWSGGSTYYADSVKGRFTISRDNAKNTVYLQMISLKPEDTSVDYCAAKQWGRYGYWGKGTQVTVSS	high polyreactivity
QVQLVESGGGLVQAGGSLRLSCAASGRIRYAMGWYRQAPGKERELVAGITWSGGRTYYADSVKGRFTISRDNAKNTVYLQMNSLKPEDTAVYYCAAATPYRYNYWGQGTQVTVSA	high polyreactivity
QVQLVESGGGLVQAGGSLRLSCAASGRISARYVMGWYRQAPGKERELVAAISWSGDRTYYADSVKGRFTISRDNAKNTVYLQMNSLKPEDTAVYYCANGFYSRLAYGYGYWGQGTQVTVSS	high polyreactivity
QVQLVESGGGLVQAGGSLRLSCAASGRISDDYAMGWYRQAPGKERELVADITSGGNTYYADSVKGRFTISRDNAKNTVYLQMNSLKPEDTAVYYCNAYYVGYIRYWTNKLVDYWGQGTQVTVSS	high polyreactivity
QVQLVESGGGLVQAGGSLRLSCAASGRISFNAMGWYRQAPGKERELVAAITSSGGRTYYADSVKGRFTISRDNAKNTVYLQMNSLKPEDTAVYYCATGSPGGSPGWGRTTGRLGYWGQGTQVTVSS	high polyreactivity
QVQLVESGGGLVQAGGSLRLSCAASGRISFVNAMGWYRQAPGKERELVAAISRGGSTNYADSVKGRFTISRDNAKNTVYLQMNSLKPEDTAVYYCAAQGNNYVRHTYGYWGQGTQVTVSS	low polyreactivity
QVQLVESGGGLVQAGGSLRLSCAASGRISGYKVMGWYRQAPGKERELVAAISGSGGSTYYADSVKGRFTISRDNAKNTVYLQMNSLKPEDTAVYYCAKATAYPYDYWGQGTQVTVSS	low polyreactivity
QVQLVESGGGLVQAGGSLRLSCAASGRISGYNMGWSRHAPGKERELVAAISNGGSTNYADSVKGRFTISRANAKNTVYLQMNSLKPEDTAVYYCAKLGPRSYSAYRYDYWGQGTQVTVSS	high polyreactivity
QVQLVESGGGLVQAGGSLRLSCAASGRISLSNAMGWYRQAPGKEREFVAAITKRSDRTYYADSVKGRFTISRDNAKNTVYLQMNSLKPEDTAVYYCAAKPLFGTRDDYWGQGTHVTVSS	low polyreactivity
QVQLVESGGGLVQAGGSLRLSCAASGRISNDYAMGWYRQAPGKERELVATITFSGGDTYYADSVKGRFTISRDNAKNTVYLQMNSLKPEDTAVYYCAASKWRSFSGGWWRLLFDYWGQGTQVTVSS	low polyreactivity
QVQLVESGGGLVQAGGSLRLSCAASGRISNDYAMGWYRQAPGKVRELVATITFSGGDTYYADSVKGRFTISRDNAKNTVYLQMNSLKPEDTSVYYCAASKWRSYSGGWWRLLFDYWGQGTQVTVSS	low polyreactivity
QVQLVESGGGLVQAGGSLRLSCAASGRISQIYAMGWYRQAPGKERELVARITSTDSTYYADSVKGRFTISRDNAKNTVYLQMNSLKPEDTAVYYCAASWWSPYDYWGQGTQVTVSS	low polyreactivity
QVQLVESGGGLVQAGGSLRLSCAASGRISQIYAMGWYRQAPGKERELVASISSSGSRTYYADSVKGRFTISRDNAKNTVYLQMNSLKPEDTAVYYCAARWWARSRGPYDYWGQGTQVTVSS	high polyreactivity
QVQLVESGGGLVQAGGSLRLSCAASGRISQIYAMGWYRQAPGTERELVASISSSGSRTYYADSVKGRFTISRDNAKNTVYLQMNSLKPEDTAVYYCAARWWARSNRYDYWGQGTQVTVSS	high polyreactivity
QVQLVESGGGLVQAGGSLRLSCAASGRISRRYAMGWYRQAPGKERELVAAITSGGRTYYADSVKGRFTISRDNAKNTVYLQMNSLKPEDTAVYYCAAAGYLPSTYWGQGTQVTVSS	high polyreactivity
QVQLVESGGGLVQAGGSLRLSCAASGRISSYYAMGWYRQAPGKDREFVARIRWSGGSTYYADSVKGRFTISRDNAKNTVYLQMNSLKPEDTAVYYCAAVPYAYGYTYDYWGQGTQVTVSS	high polyreactivity
QVQLVESGGGLVQAGGSLRLSCAASGRISTFYAMGWYRQAPGKERELVAGIRWRGGSTYYADSVKGRFTISRDNAKNTVYLQMNSLKAEDTAVYYCYSMDYWGQGTQVTVSS	high polyreactivity
